Measurements as given in patent US5223256A, “Thrombolytically active non-glycosylated protein” (Boehringer Mannheim GmbH, priority 1989, dated 1993).

Legend:
coagulation system [1] = assay: Haemostasis parameters in the rabbit jugular vein model; assay type: in vivo; settings: 30 min after end of infusion, mean ± SEM
Procedure: (§1) The jugular vein model established by D. Collen et al., (J. Clin. Invest. 71, 368, 1983) was used to investigate the thrombolytic efficacy. K2P and Actilyse® were each examined at three dose levels. The fibrinolytic agents were infused for 4 hours and afterwards the rate of thrombolysis was determined (Table 2, FIG. 5).
(§2) Thrombolysis, level of t-PA plasma activity (at the end of a 4 h
and haemostasis parameters (30 min after the end of the infusion) of
Mean ± SEM; kU = 1000 IU; HaemostasisParameter (% with reference to […]

[2] = tested on: coronary artery thrombosis; assay: Dog model for coronary artery thrombosis (thrombolysis); assay type: in vivo; settings: for Wet weight of the residual thrombus: 2 h; for Wet weight of the residual thrombus / Reperfusion time: mean ± SEM
Excerpt: An experimental model for acute myocardial infarction in animals was chosen as an example in order to examine the thrombolytic effect of K2P from E. coli on arterial thrombi. The dog was chosen as the animal species. The method for the formation of a coronary artery thrombus was a modification of the technique of Romson et al., (Thromb. Res. 17, 841, 1980). In the open thorax of anaesthetized dogs which were artificially respirated, the intimal surface of the ramus branch of the left circumflex coronary artery (LCX) was electrically stimulated (150 μA) and by this means a thrombus was produced. Previously a screw was applied distal to the thrombosis in order to eliminate a reactive hyperaemia by the experimental stenosis. Proximal to the coronary thrombosis the LCX was equipped with an electromagnetic flow measuring head in order to be able to measure the reperfusion.
(§3) In a study to determine the dosage, BM 06.022 with the eukaryotic t-PA (Alteplase, Actilyse®, Dr. Karl Thomae GmbH, Biberach, FRG) in four different doses and with placebo were injected as an initial single intravenous bolus over 1 min into heparinized dogs; 6 animals were injected with each dose. Plasma samples were taken before and at defined times after the injection in order to determine the plasma concentration of the t-PA activity and of fibrinogen, plasminogen and α2 -antiplasmin as well as the number of thrombocytes in whole blood. Fibrinogen was measured coagulometrically according to Clauss (Acta haemat. 17, 237, 1957), plasminogen and α2-antiplasmin were measured spectrophotometrically as described by Collen et al., (J. Clin. Invest. 71, 368, 1983). In addition, the "Simplate bleeding time" was measured on the hind leg of the dogs using a lancet (Simplate® I, Organon Teknika, Eppelheim, FRG) during a venostasis of 40 mm Hg (J. Surg. Res. 27, 244, 1979). The statistical comparison of the measured values after injection with the control value before injection was carried out with the Wilcoxon Test for pair differences.
In order to describe the thrombolytic effect, the number of reperfused animals per dose-group (=reperfusion rate) as well as the time up to the reperfusion (=reperfusion time) was quoted. In addition, the wet weight of the residual thrombus still present 2 h after injection was measured and the number of animals with a re-occlusion after reperfusion (=re-occlusionrate) was determined. With the aid of a semi-logarithmic regression analysis of the dose-effect (reperfusion rates) relationships, the effective dose for a 50% reperfusion rate (=ED50) was determined for each substance. The statistical comparison of the weights of the residual thrombi was carried out using the Wilcoxon-Mann-Whitney Test for unconnected random samples.

[3] = Plasma t-PA activity at the end of infusion in the rabbit jugular vein model; assay type: in vivo; settings: end of 4 h infusion, mean ± SEM
Procedure: as §1, §2

[4] = Pharmacokinetics in rabbits (t-PA activity in plasma); assay type: in vivo, New-Zealand white rabbits; settings: 200000 IU/kg, i.v. infusion 30 min
Procedure: The pharmacokinetic properties of K2P were compared to those of Actilyse® in New-Zealand white rabbits. Both fibrinolytic agents were infused for 30 minutes at a dose of 200,000 IU/kg body weight. Plasma samples were taken at defined times before, during and after the infusion. The t-PA activity was measured with a spectrophotometric test according to J. H. Verheijen et al., (Thromb. Haemostas. 48, 266, 1982), modified according to H. Lill (Z. ges. Inn. Med. 42, 478, 1987).
A calculation programme for non-linear regression modified according to H. Y. Huang (Aero-Astronautics-Report 64, Rice University, 1-30, 1969) Was used to calculate the pharmacokinetic parameters. The parameters were calculated individually using a bi-exponential pharmacokinetic model.

coagulation system [5] = assay: Coagulation parameters and number of thrombocytes in the dog; assay type: in vivo; settings: for Fibrinogen (% of initial value) / Number of platelets (% of initial value) / Plasminogen (% of initial value) / α2-Antiplasmin (% of initial value): 2 h after i.v. bolus, mean ± SEM
Procedure: as §3

[6] = Pharmacokinetics in the dog (t-PA activity in plasma); assay type: in vivo; settings: 200000 IU/kg, i.v. bolus, mean ± standard deviation
Procedure: as §3
The plasma concentration of the t-PA activity was measured with a spectrophotometric test according to Verheijen et al., (Thromb. Haemost. 48, 266, 1982) modified according to Lill (Z. gesamte Inn. Med. 42, 478, 1987). A calculation programme for non-linear regression modified according to H. Y. Huang (Aero-Astronautics-Report 64, Rice University, USA, 1-30, 1969) was used to calculate the pharmacokinetic parameters. The parameters were calculated individually using a bi-exponential pharmacokinetic model after subtraction of the endogenous basal level of t-PA activity from the subsequent measured values.

bleeding time = assay: Simplate bleeding time in the dog; assay type: in vivo; settings: i.v. bolus
Procedure: as §3

jugular vein thrombosis = assay: Thrombolysis in the rabbit jugular vein model; assay type: in vivo; settings: 4 h infusion, mean ± SEM
Procedure: as §1

[7] = background; cited from earlier work
plasminogen = settings: background; cited from earlier work
[8] = background; cited from earlier work; remark: listed apart in the source

Actilyse®: eukaryotic t-PA (Alteplase, Actilyse®, Dr. Karl Thomae GmbH, Biberach, FRG)
Fibrinogen (% of base line) (coagulation system [1]; 400 kU/kg): 90 ± 3% | Plasminogen (% of base line) (coagulation system [1]; 400 kU/kg): 88 ± 4% | α2-Antiplasmin (% of base line) (coagulation system [1]; 400 kU/kg): 87 ± 3% | Fibrinogen (% of base line) (coagulation system [1]; 800 kU/kg): 77 ± 6% | Plasminogen (% of base line) (coagulation system [1]; 800 kU/kg): 77 ± 4% | α2-Antiplasmin (% of base line) (coagulation system [1]; 800 kU/kg): 74 ± 6% | Re-occlusion rate ([2]; 1 130 000 IU/kg, i.v. bolus): 4/4 | Reperfusion rate ([2]; 1 130 000 IU/kg, i.v. bolus): 4/6 | Wet weight of the residual thrombus ([2]; 1 130 000 IU/kg, i.v. bolus): 4,4 ± 0,5 mg | Reperfusion time ([2]; 1 130 000 IU/kg, i.v. bolus): 14 ± 3 min | Re-occlusion rate ([2]; 1 600 000 IU/kg, i.v. bolus): 4/6 | Reperfusion rate ([2]; 1 600 000 IU/kg, i.v. bolus): 6/6 | Wet weight of the residual thrombus ([2]; 1 600 000 IU/kg, i.v. bolus): 2,2 ± 0,7 mg | Reperfusion time ([2]; 1 600 000 IU/kg, i.v. bolus): 28 ± 11 min | Reperfusion rate ([2]; 200 000 IU/kg, i.v. bolus): 0/6 | Wet weight of the residual thrombus ([2]; 200 000 IU/kg, i.v. bolus): 8,8 ± 1,3 mg | Re-occlusion rate ([2]; 800 000 IU/kg, i.v. bolus): 1/2 | Reperfusion rate ([2]; 800 000 IU/kg, i.v. bolus): 2/6 | Wet weight of the residual thrombus ([2]; 800 000 IU/kg, i.v. bolus): 5,5 ± 0,4 mg | Reperfusion time ([2]; 800 000 IU/kg, i.v. bolus): 35 ± 38 min | Reperfusion rate ([2]; 1,600 kU/kg body weight, i.v.): 100% | re-occlusion after reperfusion ([2]; i.v. bolus): Most of the dogs treated with K2P or Actilyse® re-occluded after the reperfusion | reperfusion time, average over all animals ([2]; i.v. bolus, all doses): 24.2 ± 6.2 min | weight of the residual thrombus compared to placebo ([2]; increasing doses, i.v. bolus): statistically significant reduction in the weight of the residual thrombus | Plasma t-PA activity ([3]; 400 kU/kg): 47 ± 9 IU/ml | Plasma t-PA activity ([3]; 800 kU/kg): 107 ± 27 IU/ml | Cinf (plasma concentration of t-PA activity at end of infusion) [4]: 326,6 IU/ml | Cltot (total plasma clearance) [4]: 22.2 mL/min/kg | Vc (volume of distribution of the central compartment) [4]: 73.7 mL/kg | t1/2α [4]: 2,1 min | t1/2β [4]: 10,9 min | Cltot (total plasma clearance) ([4]; listed as Actilyse ®): 22,2 ml/min/kg | Vc (volume of distribution of the central compartment) ([4]; listed as Actilyse ®): 73,7 ml/kg | Fibrinogen (% of initial value) (coagulation system [5]; 1 130 000 IU/kg): 16 ± 13% | Number of platelets (% of initial value) (coagulation system [5]; 1 130 000 IU/kg): 110 ± 10% | Plasminogen (% of initial value) (coagulation system [5]; 1 130 000 IU/kg): 59 ± 6% | α2-Antiplasmin (% of initial value) (coagulation system [5]; 1 130 000 IU/kg): 45 ± 6% | Fibrinogen (% of initial value) (coagulation system [5]; 1 600 000 IU/kg): 3±0% | Number of platelets (% of initial value) (coagulation system [5]; 1 600 000 IU/kg): 119 ± 10% | Plasminogen (% of initial value) (coagulation system [5]; 1 600 000 IU/kg): 46 ± 2% | α2-Antiplasmin (% of initial value) (coagulation system [5]; 1 600 000 IU/kg): 19 ± 11% | Fibrinogen (% of initial value) (coagulation system [5]; 1 600 000 IU/kg, listed as Actilyse ®): 3 ± 0% | Fibrinogen (% of initial value) (coagulation system [5]; 200 000 IU/kg): 97 ± 3% | Number of platelets (% of initial value) (coagulation system [5]; 200 000 IU/kg): 109 ± 4% | Plasminogen (% of initial value) (coagulation system [5]; 200 000 IU/kg): 90 ± 3% | α2-Antiplasmin (% of initial value) (coagulation system [5]; 200 000 IU/kg): 86 ± 4% | Fibrinogen (% of initial value) (coagulation system [5]; 800 000 IU/kg): 86 ± 4% | Number of platelets (% of initial value) (coagulation system [5]; 800 000 IU/kg): 104 ± 6% | Plasminogen (% of initial value) (coagulation system [5]; 800 000 IU/kg): 87 ± 3% | α2-Antiplasmin (% of initial value) (coagulation system [5]; 800 000 IU/kg): 64 ± 5% | concentration of platelets (coagulation system [5]; 2 h after injection, dog): virtually uninfluenced | lowering of residual contents of plasminogen and α2-antiplasmin (coagulation system [5]; 2 h after injection, dog): more pronounced with Actilyse® than with K2P | residual content of fibrinogen at the ED50 for thrombolytic effect (coagulation system [5]; equipotent doses, semi-logarithmic regression, dog): 38.6% | Cinj. [6]: 1674 IU/ml | T1/2α [6]: 1.6 ± 0.2 min | T1/2β [6]: 14,6 min | Vc (volume of distribution of the central compartment) [6]: 106,1 ml/kg | T1/2α ([6]; listed as Actilyse ®): 1,6 min | bleeding time compared with control value before injection (bleeding time): increased the bleeding time which was statistically significant at doses of 1130 and 1600 kU/kg body weight | Thrombolysis (jugular vein thrombosis; 400 kU/kg): 46 ± 3% | Thrombolysis (jugular vein thrombosis; 800 kU/kg): 64 ± 6%

natural t-PA: tissue-type plasminogen activator t-PA
clearance rate [7]: rapid decrease in its plasma concentration (clearance) | increase of enzymatic activity in presence of fibrin or fibrinogen cleavage products (plasminogen): more than ten-fold | side effects at high therapeutic doses [8]: side effects such as for example bleeding
